Measurements taken from patent US20260209350A1 (Alector, published 2026).

B1: Ab58 (antibody, human IgG1, V domains shown)
VH: EVQLVQSGAEVKKPGESLKISCKGSGYSFTSYWIGWVRQMPGKGLEWMGIIYPGDSDTRYSPSFQGQVTISADKSISTAYLQWSSLKASDTAMYYCARLGIYSTGATAFDIWGQGTMVTVSS
VL: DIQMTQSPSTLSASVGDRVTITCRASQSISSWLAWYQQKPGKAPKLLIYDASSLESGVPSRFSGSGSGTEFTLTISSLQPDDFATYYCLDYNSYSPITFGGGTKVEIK
notes: human IgG1
B2: Ab15 (antibody, human IgG1, V domains shown)
VH: QVQLQESGPGLVKPSQTLSLTCTVSGGSISSGGYYWSWIRQHPGKGLEWIGNIYYSGSTVYNPSLKSRVTISVDTSKNQFSLKLSSVTAADTAVYYCARGLYGYGVLDVWGQGTMVTVSS
VL: DIQMTQSPSSLSASVGDRVTITCQASQDISNYLNWYQQKPGKAPKLLIYDASNLETGVPSRFSGSGSGTDFTFTISSLQPEDIATYYCQQFDTYPTFGGGTKVEIK
notes: human IgG1
B3: Ab13 (antibody, human IgG1, V domains shown)
VH: QVQLVQSGAEVKKPGASVKVSCKASGYTFTSYGISWVRQAPGQGLEWMGWISAYNGNTNYAQKLQGRVTMTTDTSTSTAYMELRSLRSDDTAVYYCARGPSHYYDLAWGQGTLVTVSS
VL: EIVLTQSPATLSLSPGERATLSCRASQSVSSYLAWYQQKPGQAPRLLIYDASNRATGIPARFSGSGSGTDFTLTISSLEPEDFAVYYCQQVSNYPITFGGGTKVEIK
notes: human IgG1
B4: Ab55 (antibody, human IgG1, V domains shown)
VH: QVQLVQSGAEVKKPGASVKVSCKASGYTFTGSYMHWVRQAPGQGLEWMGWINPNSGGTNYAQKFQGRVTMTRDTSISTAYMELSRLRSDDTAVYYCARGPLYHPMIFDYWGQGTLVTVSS
VL: EIVLTQSPATLSLSPGERATLSCRASQSVSSYLAWYQQKPGQAPRLLIYDASNRATGIPARFSGSGSGTDFTLTISSLEPEDFAVYYCQQLSTYPLTFGGGTKVEIK
notes: human IgG1
B5: Ab38 (antibody, human IgG1, V domains shown)
VH: QVQLVESGGGVVQPGRSLRLSCAASGFTFSTYGMHWVRQAPGKGLEWVAVIWYDGSNKYYADSVKGRFTISRDNSKNTLYLQMNSLRAEDTAVYYCARGAPVDYGGIEPEYFQHWGQGTLVTVSS
VL: EIVLTQSPATLSLSPGERATLSCRASQSVSSYLAWYQQKPGQAPRLLIYDASNRATGIPARFSGSGSGTDFTLTISSLEPEDFAVYYCQQIDFLPYTFGGGTKVEIK
notes: human IgG1
B6: Ab57 (antibody, human IgG1, V domains shown)
VH: QVQLVQSGAEVKKPGASVKVSCKASGYTFTNYGISWVRQAPGQGLEWMGWISAYNGNTNYAQKLQGRVTMTTDTSTSTAYMELRSLRSDDTAVYYCARGPTKAYYGSGSYVVFDPWGQGTLVTVSS
VL: EIVLTQSPATLSLSPGERATLSCRASQSVSSYLAWYQQKPGQAPRLLIYDASKRATGIPARFSGSGSGTDFTLTISSLEPEDFAVYYCQQVSLFPLTFGGGTKVEIK
notes: human IgG1
B7: Ab48 (antibody, human IgG1, V domains shown)
VH: QVQLVQSGAEVKKPGASVKVSCKASGYTFTSYYMHWVRQAPGQGLEWMGIINPSGGSTTYAQKFQGRVTMTRDTSTSTVYMELSSLRSEDTAVYYCARPGKSMDVWGQGTTVTVSS
VL: EIVLTQSPATLSLSPGERATLSCRASQSVSSYLAWYQQKPGQAPRLLIYDASNRATGIPARFSGSGSGTDFTLTISSLEPEDFAVYYCQQRAAYPITFGGGTKVEIK
notes: human IgG1
B8: Ab46 (antibody, human IgG1, V domains shown)
VH: QVQLVQSGAEVKKPGASVKVSCKASGYTFTSYYMHWVRQAPGQGLEWMGIINPSGGSTSYAQKFQGRVTMTRDTSTSTVYMELSSLRSEDTAVYYCARPAKTADYWGQGTLVTVSS
VL: EIVLTQSPATLSLSPGERATLSCRASQSVSSYLAWYQQKPGQAPRLLIYDSSNRATGIPARFSGSGSGTDFTLTISSLEPEDFAVYYCQQRSNYPITFGGGTKVEIK
notes: human IgG1
B9: Ab47 (antibody, human IgG1, V domains shown)
VH: QVQLVQSGAEVKKPGASVKVSCKASGYTFTSYYMHWVRQAPGQGLEWMGIINPSGGSTTYAQKFQGRVTMTRDTSTSTVYMELSSLRSEDTAVYYCARPGKSMDVWGQGTTVTVSS
VL: EIVLTQSPGTLSLSPGERATLSCRASQSVSSYLAWYQQKPGQAPRLLIYDASNRATGIPARFSGSGSGTDFTLTISSLEPEDFAVYYCQQRILYPITFGGGTKVEIK
notes: human IgG1
B10: Ab67 (antibody, human IgG1, V domains shown)
VH: QVQLVQSGAEVKKPGASVKVSCKASGYTFTSYYMHWVRQAPGQGLEWMGIINPSGGSTTYAQKFQGRVTMTRDTSTSTVYMELSSLRSEDTAVYYCARPGKSMDVWGQGTTVTVSS
VL: EIVLTQSPATLSLSPGERATLSCRASQSVSSYLAWYQQKPGQAPRLLIYDASNRATGIPARFSGSGSGTDFTLTISSLEPEDFAVYYCQQRSHFPITFGGGTKVEIK
notes: human IgG1
B11: Ab49 (antibody, human IgG1, V domains shown)
VH: QVQLVQSGAEVKKPGASVKVSCKASGYTFTSYYMHWVRQAPGQGLEWMGIINPSGGSTSYAQKFQGRVTMTRDTSTSTVYMELSSLRSEDTAVYYCARPAKTADYWGQGTLVTVSS
VL: EIVLTQSPATLSLSPGERATLSCRASQSVSSYLAWYQQKPGQAPRLLIYDASKRATGIPARFSGSGSGTDFTLTISSLEPEDFAVYYCQQRTSHPITFGGGTKVEIK
notes: human IgG1
B12: Ab16 (antibody, human IgG1, V domains shown)
VH: QLQLQESGPGLVKPSETLSLTCTVSGGSISSNSYYWGWIRQPPGKGLEWIGSIYYSGSTYYNPSLKSRVTISVDTSKNQFSLKLSSVTAADTAVYYCARGVLGYGVFDYWGQGTLVTVSS
VL: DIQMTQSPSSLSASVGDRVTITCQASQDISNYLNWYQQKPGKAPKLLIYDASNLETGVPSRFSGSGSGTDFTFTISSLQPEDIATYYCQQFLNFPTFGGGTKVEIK
notes: human IgG1
B13: Ab17 (antibody, human IgG1, V domains shown)
VH: QLQLQESGPGLVKPSETLSLTCTVSGGSISSNSYYWGWIRQPPGKGLEWIGSIYYSGSTYYNPSLKSRVTISVDTSKNQFSLKLSSVTAADTAVYYCARGVLGYGVFDYWGQGTLVTVSS
VL: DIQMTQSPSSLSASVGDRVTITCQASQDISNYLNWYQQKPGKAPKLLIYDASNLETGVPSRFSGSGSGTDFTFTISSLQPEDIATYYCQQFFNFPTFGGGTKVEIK
notes: human IgG1
B14: Ab36 (antibody, human IgG1, V domains shown)
VH: QVQLVESGGGVVQPGRSLRLSCAASGFTFSTYGMHWVRQAPGKGLEWVAVIWYDGSNKYYADSVKGRFTISRDNSKNTLYLQMNSLRAEDTAVYYCARGTGAAAASPAFDIWGQGTMVTVSS
VL: EIVLTQSPATLSLSPGERATLSCRASQSVSSYLAWYQQKPGQAPRLLIYDASNRATGIPARFSGSGSGTDFTLTISSLEPEDFAVYYCQQLFDWPTFGGGTKVEIK
notes: human IgG1
B15: Ab44 (antibody, human IgG1, V domains shown)
VH: QVQLVESGGGVVQPGRSLRLSCAASGFTFSTYGMHWVRQAPGKGLEWVAVIWYDGSNKYYADSVKGRFTISRDNSKNTLYLQMNSLRAEDTAVYYCARGTGAAAASPAFDIWGQGTMVTVSS
VL: EIVMTQSPATLSLSPGERATLSCRASQSVSSYLAWYQQKPGQAPRLLIYDSSNRATGIPARFSGSGSGTDFTLTISSLEPEDFAVYYCQQLVHWPTFGGGTKVEIK
notes: human IgG1
B16: Ab40 (antibody, human IgG1, V domains shown)
VH: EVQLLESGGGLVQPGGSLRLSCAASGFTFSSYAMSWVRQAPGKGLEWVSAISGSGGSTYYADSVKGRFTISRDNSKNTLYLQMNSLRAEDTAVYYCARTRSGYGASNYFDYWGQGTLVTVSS
VL: DIQMTQSPSSLSASVGDRVTITCRASQSISSYLNWYQQKPGKAPKLLIYAASSLQSGVPSRFSGSGSGTDFTLTISSLQPEDFATYYCQQGYAAPITFGGGTKVEIK
notes: human IgG1
B17: Ab50 (antibody, human IgG1, V domains shown)
VH: QVQLVQSGAEVKKPGASVKVSCKASGYTFTSYYIHWVRQAPGQGLEWMGIINPSGGSTSYAQKFQGRVTMTRDTSTSTVYMELSSLRSEDTAVYYCARAPQESPYVFDIWGQGTMVTVSS
VL: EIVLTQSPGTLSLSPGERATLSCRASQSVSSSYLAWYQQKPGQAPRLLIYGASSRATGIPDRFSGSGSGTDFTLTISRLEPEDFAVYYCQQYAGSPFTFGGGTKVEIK
notes: human IgG1
B18: Ab53 (antibody, human IgG1, V domains shown)
VH: QVQLVQSGAEVKKPGASVKVSCKASGYTFTSYYIHWVRQAPGQGLEWMGIINPSGGSTSYAQKFQGRVTMTRDTSTSTVYMELSSLRSEDTAVYYCARAPQESPYVFDIWGQGTMVTVSS
VL: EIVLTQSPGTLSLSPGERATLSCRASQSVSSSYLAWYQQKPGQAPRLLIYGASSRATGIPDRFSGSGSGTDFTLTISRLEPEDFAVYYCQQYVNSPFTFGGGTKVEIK
notes: human IgG1
B19: Ab5 (antibody, human IgG1, V domains shown)
VH: QVQLVQSGAEVKKPGASVKVSCKASGYTFTSYYIHWVRQAPGQGLEWMGIINPSGGSTSYAQKFQGRVTMTRDTSTSTVYMELSSLRSEDTAVYYCARAPQESPYVFDIWGQGTMVTVSS
VL: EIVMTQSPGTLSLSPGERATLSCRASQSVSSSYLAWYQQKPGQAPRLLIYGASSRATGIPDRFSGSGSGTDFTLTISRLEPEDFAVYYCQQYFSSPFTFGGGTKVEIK
notes: human IgG1

Legend:
[1] = target: T1, human monomeric His tagged TREM2 protein (human, UniProt Q9NZC2 19-174); assay: ForteBio or MSD-SET, monovalent
T1 construct: also called hTREM2-HIS
T1 sequence: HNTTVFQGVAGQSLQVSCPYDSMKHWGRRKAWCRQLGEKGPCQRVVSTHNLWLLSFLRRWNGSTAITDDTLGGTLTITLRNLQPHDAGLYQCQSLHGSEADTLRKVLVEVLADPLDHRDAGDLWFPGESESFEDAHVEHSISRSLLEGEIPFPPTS

mouse TREM2 on cells = target: T2, mouse TREM2 on cells (mouse, UniProt Q99NH8 19-227); assay: FACS, mTrem2 cells
T2 construct: whole, on cells; Used for the recombinant protein on BWZ/BW cells (with mouse DAP12) and for the native protein on mouse macrophages and dendritic cells; the cell type stands under assay; also called mTREM2; mTrem2
T2 sequence (looked up): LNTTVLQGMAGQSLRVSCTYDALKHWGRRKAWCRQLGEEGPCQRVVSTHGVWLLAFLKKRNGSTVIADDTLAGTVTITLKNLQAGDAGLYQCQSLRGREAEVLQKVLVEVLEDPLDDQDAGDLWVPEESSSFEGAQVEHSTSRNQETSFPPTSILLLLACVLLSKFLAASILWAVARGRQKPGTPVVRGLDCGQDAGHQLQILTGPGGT

[2] = target: T3, human TREM2 Fc fusion protein (human, UniProt Q9NZC2 19-174); assay: ForteBio or MSD-SET, avid
T3 construct: also called hTREM2-Fc; not shown: Fc part not specified
T3 sequence: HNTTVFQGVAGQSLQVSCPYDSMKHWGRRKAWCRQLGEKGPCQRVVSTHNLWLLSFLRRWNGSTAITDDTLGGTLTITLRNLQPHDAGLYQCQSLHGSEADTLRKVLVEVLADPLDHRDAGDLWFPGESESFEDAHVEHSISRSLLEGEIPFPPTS

[3] = target: T4, mouse TREM2 Fc fusion protein (mouse, UniProt Q99NH8 19-171); assay: ForteBio or MSD-SET, avid
T4 construct: also called mTREM2-Fc; not shown: Fc part not specified
T4 sequence (looked up): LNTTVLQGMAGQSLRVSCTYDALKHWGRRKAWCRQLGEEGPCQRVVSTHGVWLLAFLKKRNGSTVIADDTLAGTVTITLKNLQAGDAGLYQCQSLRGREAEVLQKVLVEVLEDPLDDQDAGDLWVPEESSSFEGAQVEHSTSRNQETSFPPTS

Binder | Kd [1] [nM] | MFI (mouse TREM2 on cells) [MFI] | Kd [2] [nM] | binding result [3] | Kd [3] [nM]
B1 | 2.73 | 1870 | 0.575 | no binding | –
B2 | 3.03 | 4760 | 0.605 | – | 2.8
B3 | 66.7 | 3250 | 1.49 | – | 1.71
B4 | 91.7 | 6220 | 2.22 | – | 1.17
B5 | 13.1 | 297 | 0.96 | no binding | –
B6 | 18.3 | 10200 | 0.436 | – | 0.598
B7 | 9.08 | 9770 | 0.35 | – | 1.41
B8 | 16.8 | 4260 | 0.445 | – | 2.46
B9 | 7.37 | 10100 | 0.431 | – | 1.45
B10 | 34.5 | 6210 | 0.66 | – | 2.92
B11 | 17.4 | 4320 | 0.435 | – | 2.08
B12 | 2.47 | 6380 | 1.09 | – | 1.36
B13 | 3.46 | 10300 | 0.792 | – | 1.67
B14 | 4.01 | 1260 | 0.465 | no binding | –
B15 | 9.46 | 1210 | 0.562 | no binding | –
B16 | 7.97 | 577 | 0.197 | – | 6.03
B17 | 36.4 | 325 | 0.729 | no binding | –
B18 | 21.6 | 843 | 0.635 | no binding | –
B19 | 30 | 310 | 0.697 | no binding | –
